Article PMC6254361, “The properties of Msh2–Msh6 ATP binding mutants suggest a signal amplification mechanism in DNA mismatch repair” (The Journal of Biological Chemistry, 2018)

Columns and labels:
Msh2(K694M)–Msh6 = Msh2(K694M)–Msh6 (S. cerevisiae, UniProt P25847 1-964; Q03834 1-1242, K694M); experiment: cell-based or functional assay
Msh2(K694R)–Msh6 = Msh2(K694R)–Msh6 (S. cerevisiae, UniProt P25847 1-964; Q03834 1-1242, K694R); experiment: cell-based or functional assay
Msh2(K694A)–Msh6 = Msh2(K694A)–Msh6 (S. cerevisiae, UniProt P25847 1-964; Q03834 1-1242, K694A); experiment: cell-based or functional assay
Msh2–Msh6(K988M) = target: T1, Msh2–Msh6(K988M) (S. cerevisiae, UniProt P25847 1-964; Q03834 1-1242, K988M); experiment: SPR; Biacore T100; 236-bp GT mispair DNA held by biotin-streptavidin, other end blocked by lacO-LacI; 20 nM Msh2–Msh6, 250 μM ATP, 30 nM LacI for 100 s, then the same plus 40 nM Mlh1–Pms1 for 300 s; recruitment read as the increase in RU over steady-state Msh2–Msh6; 25 mM Tris pH 8, 4 mM MgCl2, 110 mM NaCl, 0.01% Igepal, 2 mM DTT, 2% glycerol; 10 °C, 20 μl/min; settings: both partners purified
T1 construct: Msh2, S. cerevisiae, wild type; Msh6, S. cerevisiae, Walker A lysine mutant; also called Walker A Lys mutant Msh2–Msh6 complex; source: purified

[1] = target: T2, S. cerevisiae Msh2–Msh6 (WT) (S. cerevisiae, UniProt P25847 1-964; Q03834 1-1242); experiment: as above; settings: both partners purified
T2 construct: Msh2, S. cerevisiae, wild type; Msh6, S. cerevisiae, wild type; Heterodimer; also called WT Msh2–Msh6

Msh2–Msh6(K988R) = target: T3, Msh2–Msh6(K988R) (S. cerevisiae, UniProt P25847 1-964; Q03834 1-1242, K988R); experiment: as above; settings: both partners purified
T3 construct: Msh2, S. cerevisiae, wild type; Msh6, S. cerevisiae, Walker A lysine mutant; also called Walker A Lys mutant Msh2–Msh6 complex

Msh2–Msh6(K988A) = target: T4, Msh2–Msh6(K988A) (S. cerevisiae, UniProt P25847 1-964; Q03834 1-1242, K988A); experiment: as above; settings: both partners purified
T4 construct: Msh2, S. cerevisiae, wild type; Msh6, S. cerevisiae, Walker A lysine mutant; also called Walker A Lys mutant Msh2–Msh6 complex
T4 sequence (P25847 whole entry, chain 1 of 2): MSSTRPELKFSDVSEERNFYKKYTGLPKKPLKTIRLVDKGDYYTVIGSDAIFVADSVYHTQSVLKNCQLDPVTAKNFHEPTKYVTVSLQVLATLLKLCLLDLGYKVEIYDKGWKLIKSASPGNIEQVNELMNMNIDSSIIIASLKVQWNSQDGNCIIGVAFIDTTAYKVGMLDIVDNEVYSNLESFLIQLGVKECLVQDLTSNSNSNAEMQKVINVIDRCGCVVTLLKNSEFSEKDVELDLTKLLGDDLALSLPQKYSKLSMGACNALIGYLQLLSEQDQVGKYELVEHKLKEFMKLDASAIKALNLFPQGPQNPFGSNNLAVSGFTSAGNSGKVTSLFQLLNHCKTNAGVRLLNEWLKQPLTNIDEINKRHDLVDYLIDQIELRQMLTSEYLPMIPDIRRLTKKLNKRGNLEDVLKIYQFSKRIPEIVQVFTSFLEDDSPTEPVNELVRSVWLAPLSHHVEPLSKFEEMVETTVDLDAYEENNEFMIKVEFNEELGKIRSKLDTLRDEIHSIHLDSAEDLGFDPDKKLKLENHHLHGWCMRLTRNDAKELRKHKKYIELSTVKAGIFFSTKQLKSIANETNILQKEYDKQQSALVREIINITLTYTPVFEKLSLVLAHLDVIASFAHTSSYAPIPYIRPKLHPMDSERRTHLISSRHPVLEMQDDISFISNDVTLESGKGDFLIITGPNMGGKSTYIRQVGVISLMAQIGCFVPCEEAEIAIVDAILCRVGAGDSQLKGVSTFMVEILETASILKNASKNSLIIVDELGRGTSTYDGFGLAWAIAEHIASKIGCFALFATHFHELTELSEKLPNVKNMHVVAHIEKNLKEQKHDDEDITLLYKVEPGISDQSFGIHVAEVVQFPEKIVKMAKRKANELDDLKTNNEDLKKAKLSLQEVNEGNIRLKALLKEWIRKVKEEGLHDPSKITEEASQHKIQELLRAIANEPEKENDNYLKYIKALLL
T4 sequence (Q03834 whole entry K988A, chain 2 of 2): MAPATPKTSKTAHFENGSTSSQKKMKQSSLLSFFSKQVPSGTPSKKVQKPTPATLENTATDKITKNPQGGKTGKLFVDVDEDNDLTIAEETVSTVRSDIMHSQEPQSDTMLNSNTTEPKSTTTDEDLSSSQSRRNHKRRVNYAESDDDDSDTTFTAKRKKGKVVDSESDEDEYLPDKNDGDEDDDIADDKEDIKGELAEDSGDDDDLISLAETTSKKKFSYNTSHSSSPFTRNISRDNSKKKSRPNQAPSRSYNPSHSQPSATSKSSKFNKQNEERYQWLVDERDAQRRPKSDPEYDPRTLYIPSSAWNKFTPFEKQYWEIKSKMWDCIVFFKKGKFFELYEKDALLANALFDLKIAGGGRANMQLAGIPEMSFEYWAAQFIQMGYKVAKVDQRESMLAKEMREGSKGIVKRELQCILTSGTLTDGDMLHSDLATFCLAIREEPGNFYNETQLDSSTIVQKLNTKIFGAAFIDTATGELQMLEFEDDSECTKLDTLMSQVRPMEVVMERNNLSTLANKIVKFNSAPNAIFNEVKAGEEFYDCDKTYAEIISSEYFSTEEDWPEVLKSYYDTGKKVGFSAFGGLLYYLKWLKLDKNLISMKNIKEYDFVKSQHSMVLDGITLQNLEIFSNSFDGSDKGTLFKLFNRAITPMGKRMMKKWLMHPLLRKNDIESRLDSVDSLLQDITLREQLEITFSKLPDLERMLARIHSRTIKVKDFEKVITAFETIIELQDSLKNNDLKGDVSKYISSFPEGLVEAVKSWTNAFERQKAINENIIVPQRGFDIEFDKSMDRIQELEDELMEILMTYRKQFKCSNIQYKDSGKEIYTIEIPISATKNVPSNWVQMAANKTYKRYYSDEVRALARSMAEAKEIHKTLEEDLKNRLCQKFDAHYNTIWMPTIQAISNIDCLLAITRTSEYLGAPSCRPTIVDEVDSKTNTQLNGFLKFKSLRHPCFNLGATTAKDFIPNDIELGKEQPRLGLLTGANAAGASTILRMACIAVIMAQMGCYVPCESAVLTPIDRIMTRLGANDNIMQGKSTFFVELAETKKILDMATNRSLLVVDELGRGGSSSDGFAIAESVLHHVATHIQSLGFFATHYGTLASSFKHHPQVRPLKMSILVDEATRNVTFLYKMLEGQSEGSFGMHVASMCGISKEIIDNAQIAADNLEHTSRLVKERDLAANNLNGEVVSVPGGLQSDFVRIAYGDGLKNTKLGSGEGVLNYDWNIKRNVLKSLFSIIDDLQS

Msh2(K694A)–Msh6, sequence (P25847 whole entry K694A, chain 1 of 2): as the sequence (P25847 whole entry, chain 1 of 2) above, with K694A counted along it
Msh2(K694A)–Msh6, sequence (Q03834 whole entry, chain 2 of 2): as the sequence (Q03834 whole entry K988A, chain 2 of 2) above, with A988K counted along it
Msh2(K694M)–Msh6, sequence (P25847 whole entry K694M, chain 1 of 2): as the sequence (P25847 whole entry, chain 1 of 2) above, with K694M counted along it
Msh2(K694M)–Msh6, sequence (Q03834 whole entry, chain 2 of 2): as the sequence (Q03834 whole entry K988A, chain 2 of 2) above, with A988K counted along it
T2 sequence (P25847 whole entry, chain 1 of 2): as the sequence (P25847 whole entry, chain 1 of 2) above
T2 sequence (Q03834 whole entry, chain 2 of 2): as the sequence (Q03834 whole entry K988A, chain 2 of 2) above, with A988K counted along it
T3 sequence (P25847 whole entry, chain 1 of 2): as the sequence (P25847 whole entry, chain 1 of 2) above
T3 sequence (Q03834 whole entry K988R, chain 2 of 2): as the sequence (Q03834 whole entry K988A, chain 2 of 2) above, with A988R counted along it
T1 sequence (P25847 whole entry, chain 1 of 2): as the sequence (P25847 whole entry, chain 1 of 2) above
T1 sequence (Q03834 whole entry K988M, chain 2 of 2): as the sequence (Q03834 whole entry K988A, chain 2 of 2) above, with A988M counted along it
Msh2(K694R)–Msh6, sequence (P25847 whole entry K694R, chain 1 of 2): as the sequence (P25847 whole entry, chain 1 of 2) above, with K694R counted along it
Msh2(K694R)–Msh6, sequence (Q03834 whole entry, chain 2 of 2): as the sequence (Q03834 whole entry K988A, chain 2 of 2) above, with A988K counted along it

- Mlh1–Pms1 endonuclease nicking of a 3′ nicked mispaired DNA promoted by the Msh2–Msh6 variant (with PCNA, RFC-Δ1N), 0.1 and 2.5 mM ATP, relative to WT Msh2–Msh6 (Msh2(K694M)–Msh6): ~50 % of the nicking of WT Msh2–Msh6
- Mlh1–Pms1 endonuclease nicking of a 3′ nicked mispaired DNA promoted by the Msh2–Msh6 variant (with PCNA, RFC-Δ1N), 0.1 and 2.5 mM ATP, relative to WT Msh2–Msh6 (Msh2(K694R)–Msh6): ~50 % of the nicking of WT Msh2–Msh6
- Mlh1–Pms1 endonuclease nicking of a 3′ nicked mispaired DNA promoted by the Msh2–Msh6 variant (with PCNA, RFC-Δ1N), 0.1 and 2.5 mM ATP, relative to WT Msh2–Msh6 (Msh2(K694A)–Msh6): ~50 % of the nicking of WT Msh2–Msh6
- binding result (Msh2–Msh6(K988M)): binds
- stoichiometry N [1]: 1.07 Mlh1–Pms1 per Msh2–Msh6
- binding result (Msh2–Msh6(K988R)): binds
- binding result (Msh2–Msh6(K988A)): binds
B1: S. cerevisiae Mlh1–Pms1 (complex)
chain 1: MSLRIKALDASVVNKIAAGEIIISPVNALKEMMENSIDANATMIDILVKEGGIKVLQITDNGSGINKADLPILCERFTTSKLQKFEDLSQIQTYGFRGEALASISHVARVTVTTKVKEDRCAWRVSYAEGKMLESPKPVAGKDGTTILVEDLFFNIPSRLRALRSHNDEYSKILDVVGRYAIHSKDIGFSCKKFGDSNYSLSVKPSYTVQDRIRTVFNKSVASNLITFHISKVEDLNLESVDGKVCNLNFISKKSISPIFFINNRLVTCDLLRRALNSVYSNYLPKGNRPFIYLGIVIDPAAVDVNVHPTKREVRFLSQDEIIEKIANQLHAELSAIDTSRTFKASSISTNKPESLIPFNDTIESDRNRKSLRQAQVVENSYTTANSQLRKAKRQENKLVRIDASQAKITSFLSSSQQFNFEGSSTKRQLSEPKVTNVSHSQEAEKLTLNESEQPRDANTINDNDLKDQPKKKQKLGDYKVPSIADDEKNALPISKDGYIRVPKERVNVNLTSIKKLREKVDDSIHRELTDIFANLNYVGVVDEERRLAAIQHDLKLFLIDYGSVCYELFYQIGLTDFANFGKINLQSTNVSDDIVLYNLLSEFDELNDDASKEKIISKIWDMSSMLNEYYSIELVNDGLDNDLKSVKLKSLPLLLKGYIPSLVKLPFFIYRLGKEVDWEDEQECLDGILREIALLYIPDMVPKVDTSDASLSEDEKAQFINRKEHISSLLEHVLFPCIKRRFLAPRHILKDVVEIANLPDLYKVFERC
chain 2: MTQIHQINDIDVHRITSGQVITDLTTAVKELVDNSIDANANQIEIIFKDYGLESIECSDNGDGIDPSNYEFLALKHYTSKIAKFQDVAKVQTLGFRGEALSSLCGIAKLSVITTTSPPKADKLEYDMVGHITSKTTTSRNKGTTVLVSQLFHNLPVRQKEFSKTFKRQFTKCLTVIQGYAIINAAIKFSVWNITPKGKKNLILSTMRNSSMRKNISSVFGAGGMRGLEEVDLVLDLNPFKNRMLGKYTDDPDFLDLDYKIRVKGYISQNSFGCGRNSKDRQFIYVNKRPVEYSTLLKCCNEVYKTFNNVQFPAVFLNLELPMSLIDVNVTPDKRVILLHNERAVIDIFKTTLSDYYNRQELALPKRMCSQSEQQAQKRLKTEVFDDRSTTHESDNENYHTARSESNQSNHAHFNSTTGVIDKSNGTELTSVMDGNYTNVTDVIGSECEVSVDSSVVLDEGNSSTPTKKLPSIKTDSQNLSDLNLNNFSNPEFQNITSPDKARSLEKVVEEPVYFDIDGEKFQEKAVLSQADGLVFVDNECHEHTNDCCHQERRGSTDTEQDDEADSIYAEIEPVEINVRTPLKNSRKSISKDNYRSLSDGLTHRKFEDEILEYNLSTKNFKEISKNGKQMSSIISKRKSEAQENIIKNKDELEDFEQGEKYLTLTVSKNDFKKMEVVGQFNLGFIIVTRKVDNKYDLFIVDQHASDEKYNFETLQAVTVFKSQKLIIPQPVELSVIDELVVLDNLPVFEKNGFKLKIDEEEEFGSRVKLLSLPTSKQTLFDLGDFNELIHLIKEDGGLRRDNIRCSKIRSMFAMRACRSSIMIGKPLNKKTMTRVVHNLSELDKPWNCPHGRPTMRHLMELRDWSSFSKDYEI
notes: Mlh1, S. cerevisiae; Pms1, S. cerevisiae; also called MMR endonuclease Mlh1–Pms1
